From publication PMC2873218 come the findings set out here.

As a reminder, the Kd is a measure of binding affinity in units of concentration. High values mean a looser complex, low ones a tighter complex.

Chain of C. elegans KMN network containing KNL-1SD and the MIS-12SD complex (Q17635 whole entry, looked up): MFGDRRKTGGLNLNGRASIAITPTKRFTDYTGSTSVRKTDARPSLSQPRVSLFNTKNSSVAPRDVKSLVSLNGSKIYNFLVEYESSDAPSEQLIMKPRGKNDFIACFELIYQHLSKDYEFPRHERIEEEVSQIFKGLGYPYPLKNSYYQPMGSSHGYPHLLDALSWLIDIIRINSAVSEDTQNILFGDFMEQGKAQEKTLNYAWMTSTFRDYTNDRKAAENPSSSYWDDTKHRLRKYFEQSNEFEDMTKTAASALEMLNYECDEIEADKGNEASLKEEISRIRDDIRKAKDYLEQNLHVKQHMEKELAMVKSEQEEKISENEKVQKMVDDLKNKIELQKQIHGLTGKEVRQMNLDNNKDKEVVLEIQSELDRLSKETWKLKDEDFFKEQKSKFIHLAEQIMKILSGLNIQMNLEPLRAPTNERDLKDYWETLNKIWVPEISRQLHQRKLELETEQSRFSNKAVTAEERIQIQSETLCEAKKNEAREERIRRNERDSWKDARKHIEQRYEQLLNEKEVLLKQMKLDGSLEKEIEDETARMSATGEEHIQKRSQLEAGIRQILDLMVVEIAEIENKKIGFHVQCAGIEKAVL
Chain of C. elegans KMN network containing KNL-1SD and the MIS-12SD complex (P34278 whole entry, looked up): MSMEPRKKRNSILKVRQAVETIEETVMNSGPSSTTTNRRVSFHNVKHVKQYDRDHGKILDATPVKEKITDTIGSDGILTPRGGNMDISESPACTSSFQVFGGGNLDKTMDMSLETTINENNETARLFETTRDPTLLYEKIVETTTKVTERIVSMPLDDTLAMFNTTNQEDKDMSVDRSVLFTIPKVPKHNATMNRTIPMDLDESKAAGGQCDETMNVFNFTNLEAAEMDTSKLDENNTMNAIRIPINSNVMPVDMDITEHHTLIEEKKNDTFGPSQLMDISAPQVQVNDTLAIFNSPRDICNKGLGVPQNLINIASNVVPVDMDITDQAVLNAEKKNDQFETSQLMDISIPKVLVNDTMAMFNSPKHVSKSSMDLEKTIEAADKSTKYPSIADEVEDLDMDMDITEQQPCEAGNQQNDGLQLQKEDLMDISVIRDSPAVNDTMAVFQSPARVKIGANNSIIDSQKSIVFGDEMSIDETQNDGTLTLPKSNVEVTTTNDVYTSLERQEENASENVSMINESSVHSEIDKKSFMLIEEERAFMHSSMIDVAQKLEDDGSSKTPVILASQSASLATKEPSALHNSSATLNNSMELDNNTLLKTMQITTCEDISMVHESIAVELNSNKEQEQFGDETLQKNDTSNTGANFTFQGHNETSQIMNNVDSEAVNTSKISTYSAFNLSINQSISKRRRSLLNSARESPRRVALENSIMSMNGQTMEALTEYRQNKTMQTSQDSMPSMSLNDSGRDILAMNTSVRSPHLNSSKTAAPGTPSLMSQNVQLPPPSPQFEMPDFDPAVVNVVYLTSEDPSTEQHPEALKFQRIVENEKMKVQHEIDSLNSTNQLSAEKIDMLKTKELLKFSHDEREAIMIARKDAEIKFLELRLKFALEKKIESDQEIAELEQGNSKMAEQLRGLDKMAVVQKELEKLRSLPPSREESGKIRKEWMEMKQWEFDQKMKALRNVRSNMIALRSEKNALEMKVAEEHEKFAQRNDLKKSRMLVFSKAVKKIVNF
Chain of C. elegans KMN network containing KNL-1SD and the NDC-80SD complex (Q17635 whole entry, looked up): as the sequence (Q17635 whole entry, looked up) above
Chain of C. elegans KMN network containing KNL-1SD and the NDC-80SD complex (P34278 whole entry, looked up): as the sequence (P34278 whole entry, looked up) above

The target in this assay is microtubules. The experiment in a line: co-sedimentation.
Chain of microtubules (P68363 whole entry, chain 1 of 2): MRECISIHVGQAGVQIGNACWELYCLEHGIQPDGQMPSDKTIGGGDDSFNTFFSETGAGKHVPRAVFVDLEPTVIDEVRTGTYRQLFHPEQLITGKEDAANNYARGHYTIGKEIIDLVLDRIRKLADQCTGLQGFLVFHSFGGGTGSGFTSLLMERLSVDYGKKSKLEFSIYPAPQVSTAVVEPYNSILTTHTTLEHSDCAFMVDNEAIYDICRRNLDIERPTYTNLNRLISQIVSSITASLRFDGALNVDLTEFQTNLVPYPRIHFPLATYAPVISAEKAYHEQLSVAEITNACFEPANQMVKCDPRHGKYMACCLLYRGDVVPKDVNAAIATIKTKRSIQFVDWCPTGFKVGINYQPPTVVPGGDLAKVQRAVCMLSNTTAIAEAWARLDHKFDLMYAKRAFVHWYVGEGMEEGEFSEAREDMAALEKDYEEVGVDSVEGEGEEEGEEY
Chain of microtubules (A8K068 whole entry, chain 2 of 2, further chain): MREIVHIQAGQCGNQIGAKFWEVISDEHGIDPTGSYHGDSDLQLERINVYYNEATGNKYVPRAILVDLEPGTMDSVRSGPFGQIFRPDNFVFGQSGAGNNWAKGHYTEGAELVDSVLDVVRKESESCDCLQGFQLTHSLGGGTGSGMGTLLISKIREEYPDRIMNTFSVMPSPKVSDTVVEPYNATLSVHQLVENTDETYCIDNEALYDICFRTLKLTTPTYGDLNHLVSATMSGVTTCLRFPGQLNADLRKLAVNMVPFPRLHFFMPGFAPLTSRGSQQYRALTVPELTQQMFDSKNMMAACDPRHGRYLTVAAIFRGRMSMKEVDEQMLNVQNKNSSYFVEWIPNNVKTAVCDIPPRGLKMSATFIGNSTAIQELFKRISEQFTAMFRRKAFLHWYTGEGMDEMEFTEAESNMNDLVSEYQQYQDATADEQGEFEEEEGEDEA
“C. elegans KMN network containing KNL-1SD (from UniProt P34278 1-1010; Q17635 1-590) (complex)” displayed a Kd of 2.1 µM.
With “C. elegans KMN network containing KNL-1SD and the MIS-12SD complex (from UniProt P34278 1-1010; Q17635 1-590)”, the Kd turned out to be 5.3 µM.
Take “C. elegans KMN network containing KNL-1SD and the NDC-80SD complex (from UniProt P34278 1-1010; Q17635 1-590)”: the Kd stood at 4.9 µM.
